This note sets out measurements from patent publication US20040191910, “Genes encoding plant transcription factors” (International Research Center for Agricultural Sciences, published 2004).

For the data set, the target named is OsDREB2A (Oryza sativa, UniProt A2WL19 SEQ:1-163). The data set is described as follows: EMSA; room temperature 20 min, 5% PAGE 0.25x TBE. To be noted: tags: N-terminal GST (pGEX-4T-1), cDNA nt 334-822; label: 32P. As for the experimental part: The E. coli into which the protein had been induced was suspended in 18 ml of buffer (10 mM Tris-HCl, pH 8.0, 0.1 mM EDTA, 5 mM MgCl₂, 400 mM NaCl, 5% glycerol, 0.1 mM phenylmethylsulfonyl fluoride, 0.1 mM dithiothreitol). Then, 1% Triton X-100 and 1 mM EDTA were added thereto. After the cells were disrupted by sonication, the disrupted material was centrifuged at 20,000 g for 1 hour. Then, the protein was purified from the supernatant using glutathione-Sepharose (Pharmacia). The resultant fusion protein was incubated at room temperature for 20 minutes using the DRE sequence-containing 75 bp DNA fragment (SEQ ID NO: 16) labeled with ³²P as a probe. This mixture was electrophoresed using 5% polyacrylamide containing 0.25×Tris-borate-EDTA at 120 V for 90 minutes. As a result of this gel shift assay, those bands which migrated to the back were detected. When the DNA fragment containing the mutated DRE sequence was used as a probe, such bands were not detected. Thus, it became evident that OsDREB1A and OsDREB2A proteins specifically bind to the DRE sequence (FIG. 4).
On the technique in general: In EMSA bound probe runs differently from free probe, usually more slowly.

OsDREB2A, sequence (A2WL19 1-163): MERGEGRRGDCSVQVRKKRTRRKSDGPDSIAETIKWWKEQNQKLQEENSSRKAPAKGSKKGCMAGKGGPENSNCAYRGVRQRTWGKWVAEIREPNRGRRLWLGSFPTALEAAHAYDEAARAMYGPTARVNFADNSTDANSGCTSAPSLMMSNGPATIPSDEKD

B1: DRE 75 bp fragment of rd29A promoter (dsDNA)
DNA 1: ACATCAGTTTGAAAGAAAAGGGAAAAAAAGAAAAAATAAATAAAAGATATACTACCGACATGAGTTCCAAAAAGC
DNA 2: GCTTTTTGGAACTCATGTCGGTAGTATATCTTTTATTTATTTTTTCTTTTTTTCCCTTTTCTTTCAAACTGATGT
In the case of B1, the binding result was “binds”.
